Consider 3 proteins from publication PMC5770610, “Structure and function of urea amidolyase” (Bioscience Reports, 2018).

Substrate in data set [1]: NC(=O)NC(=O)O
In words: glutamate dehydrogenase-coupled NADH assay of ammonium. The data set is classed as biochemical, Kluyveromyces lactis. The note with it: AH activity, 6 mM MgCl2, 20 mM KCl, pH 8.0, substrate as potassium salt, mutation at AH dimer interface. The source says:
(§1) glutamate dehydrogenase-coupled NADH assay of ammonium on KlUA

Substrate in data set [2]: NC(N)=O
Described as above. The data set is classed as biochemical, Kluyveromyces lactis. The settings on record: overall UA activity, 5 mM ATP, 12.5 mM bicarbonate, 11 mM MgCl2, 20 mM KCl.
Excerpt: as §1

Where [3] appears, read: pH 8.0, mutation at AH dimer interface.
[4] abbreviates: pH 8.0, mutation in UC CT active site.
Setting [5] is: pH 8.0, mutation in AH N domain active site.

Substitutions are numbered along the chain they refer to. Names may count otherwise.

As a reminder, the Km is the substrate concentration at which the rate is half of its maximum. The kcat is the maximal rate divided by the concentration of active sites. A word on the kcat/Km: it is the turnover number divided by the Michaelis constant.

B1: KlUA (Kluyveromyces lactis NRRL Y-1140; G559E/G572E) (protein)
chain: MESTLGWSVQDWLSFHSKSTPTKSLELLENLLKSQKPAPEDPAWISLIPVEDLHHQWNILQSKSNKEELPLYGVPIAVKDNIDYKGLPTTAACPSYLYQPTRDSYVVELLRDAGAVVIGKTNLDQFATGLVGTRSPYGKTPCVFNDKYVSGGSSAGSASVVGRGIVPLSLGTDTAGSGRVPAALNNLIGLKPTKGAFSCRGVVPACKSLDCVSVFALNLSDAEIAFKVMNKPDLLEDEYSREFPKNPISQYPKDLTIAIPKEVPWFGETENPKLYTKAVASLKNTGAKIVVVDFEPLLELARCLYEGAWVAERYCATRDFLATNPPESSLDETVVNIIKGAVKFDAADAFKFEYKRQGILQKVNLLLKDIDVLCVPTCPLNPKLEEVAQEPVLVNSRQGTWTNFVNLADLAALAVPSGFRSDGLPNGITLIGKKFSDYALLDLAKRFFSVAFPNNSRTYGKFVDRRITVEDELDGPSKDTLNGVKLAVVGAHLKGLPLHWQLQKCNATYLSSPKTSNNYKLYALPKVGPVLKPGLRRVNDGTGSQIQLEVYSVPYDRFEDFIAMVPEPLGIESVELESGEWVKSFICEEFGYTQQGTVDITKFGGFKPYIEHIQVTEAQKKKPFETVLIANRGEIAVRIMKTLKRMGIKSVAVYSDPDKYSQHVTDADFSVALHGRTAAETYLDIDKIINAAKKTGAQAIIPGYGFLSENADFSDRCSQENIVFVGPSGDAIRKLGLKHSAREIAERAKVPLVPGSGLIKDAKEAKEVAKKLEYPVMVKSTAGGGGIGLQKVDSEDDIERVFETVQHQGKSYFGDAGVFMERFVNNARHVEIQMMGDGFGKAIAIGERDCSLQRRNQKVIEETPAPNLPEATRAKMRAASERLGSLLKYKCAGTVEFIYDEQRDEFYFLEVNARLQVEHPITEMVTGLDLVEWMLRIAANDSPDFDNTKIEVSGASIEARLYAENPVKDFRPSPGQLTSVSFPSWARVDTWVKKGTNVSAEYDPTLAKIIVHGKDRNDAIMKLNQALNETAVYGCITNIDYLRSIASSKMFKEAKVATKVLDSFDYKPCAFEVLAPGANTSVQDYPGRTGYWRIGVPPSGPMDSYSFRLANRVVGNNSKSPALEITLNGPKLLFHTETVIAVSGGTVSCTLNDAQIAQNEPIEVKRGDILSVGKVTVGCRAYLSIRGGIDVPEYLGSRSTFAMGNMGGYNGRILKLGDVLFLNQPELSVSSLPAPDFEPQAAPKSLLPTLSTNKDWKIGVTCGPHGSIDLFKEEYIEQFFNDKWKVHYNSNRFGVRLIGPKPKWARSDGGEAGLHPSNAHDYVYSLGAINFTGDEPVIITCDGPSLGGFVCQAVVAEAELWKVGQLTPGDTIQFVPLSYGVARQLKESQDKSIDNFEEGSLLELSDDKILPKYENPILAVLPKKSDLSPKVTYRQAGDRYILVEYGELEFDLNICYRINRLIHQVERHQTVGIVEMSQGVRSVLIEFDGSKINQKALLKCLIAYESEIQFDKNWNVKSKIFKLPMAFEDSKTLDCVTRYRETIRSEAPWLPNNVDFIADVNDIDRNDVKNMLYSAKFMVLGLGDVFLGSPCAVPLDPRHRYLGTKYNPSRTYTARGVVGIGGMYMCIYNAEGSPGGYQLVGRTITAWDKLVIGDHPIDHPWLLTPFDQVEFYPVTEEELEVIIEDNDNGKFKIDVEESIFDHKEYLAWINENIDSIVAFQEAQGGEKADEFARLIQVANAELKKSGDDKPQDVEEYPDDAELLYSEYTGRFWKPVAAVGDHVEAGDGVIIIEAMKTEMVVGATKSGKVYKILHKNGDMVEAGDLVAVIV
notes: full-length enzyme, AH + UC domains; recombinant in E. coli BL21(DE3) Star (pET28A, nickel column); homodimer, monomer 202 kDa
B1: in data set [1], the Km came to 1040 ± 183 µM, the kcat was 7.85 ± 0.367 s⁻¹ and the kcat/Km amounted to 7550 ± 1680 M⁻¹ s⁻¹. Further, in data set [2] (setting [3]), the Km came to 361 ± 32 µM, the kcat was 3 ± 0.0533 s⁻¹ and the kcat/Km came out at 8320 ± 900 M⁻¹ s⁻¹.

B2: KlUA (Kluyveromyces lactis NRRL Y-1140; K1605A) (protein)
chain: B1 chain with E559G, E572G, K1605A
notes: as for B1
For B2, in data set [2] (setting [4]), the Km worked out at 299 ± 39 µM, the kcat worked out at 1.33 ± 0.0333 s⁻¹ and the kcat/Km was determined as 4450 ± 683 M⁻¹ s⁻¹.

B3: KlUA (Kluyveromyces lactis NRRL Y-1140; S177A) (protein)
chain: B1 chain with S177A, E559G, E572G
notes: as for B1
Regarding B3, in data set [2] (setting [5]), the Km is 203 ± 20 µM, the kcat was 0.785 ± 0.0133 s⁻¹ and the kcat/Km is 3870 ± 450 M⁻¹ s⁻¹.
